Experiment [1] concerns the target T1, recombinant antigen of the extracellular region of CD47 (Sino Biological, Cat: 12283-H08H) (human, UniProt Q08722 19-139).
T1 construct: extracellular domain; also called recombinant CD47 extracellular region; CD47 recombinant protein
The experiment is described as follows: Fortebio BLI, recombinant CD47.

The target of experiment [2] is T2, CD47 on the surface of tumor cells (human, UniProt Q08722 19-323).
T2 construct: whole, on cells; Same protein as m4; also called CD47 antigen on the surface of U937 and CCRF cells; SKOV-3
The experiment is described as follows: FACS, tumor cells, 2 nM.
Description: (§1) The difference between the binding of the mutant to CD47 on the surface of tumor cells and CD47 on the surface of red blood cells was evaluated.

Experiment [3] addresses T3, CD47 on the surface of human red blood cells (human, UniProt Q08722 19-323).
T3 construct: whole, on cells; Same protein as m3, on red blood cells; also called hRBC; RBC
Kind of experiment: FACS, RBC, 200 nM. A general note: Flow cytometry measures light scatter and fluorescence of single cells or particles in a stream.
Description: as §1

Experiment [4] addresses T1, recombinant antigen of the …. Kind of experiment: Fortebio BLI, antibody on AHC sensor, CD47 extracellular region 100 nM.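 Also: antibody held on the sensor through anti-human Fc capture, CD47 antigen in solution, association and dissociation phases each lasting 300 s.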
Description: The affinity between the obtained mutant antibody and the CD47 recombinant protein was determined by Fortebio. The antibody was immobilized on the surface of a sensor with the anti-human Fc capture antibody (AHC Sensor), and reacted with the recombinant antigen of the extracellular region of CD47 (with a working concentration of 100 nM) in the liquid phase. The duration for binding and dissociation was both 300 seconds. The kinetic parameters were determined.
Experiment [5] concerns the target PD-L1 (human, UniProt Q9NZQ7 19-239, limits assumed). Kind of experiment: Fortebio BLI. A general note: Biolayer interferometry detects binding as a change in optical thickness at a sensor tip.
The target of experiment [6] is T1, recombinant antigen of the …. Kind of experiment: Fortebio BLI.
Experiment [7] has as its target T2, CD47 on the surface of tumor cells. The experiment is described as follows: FACS, SKOV-3 tumor cells (no PD-L1), antibody 100 nM.
Description: In the experiment of analyzing the binding to human red blood cells, the antibody was used at a concentration of 1000 nM; and in the experiment of analyzing the binding to tumor cells, the antibody was used at a concentration of 100 nM.

Sequence of PD-L1 (Q9NZQ7 19-239 limits assumed): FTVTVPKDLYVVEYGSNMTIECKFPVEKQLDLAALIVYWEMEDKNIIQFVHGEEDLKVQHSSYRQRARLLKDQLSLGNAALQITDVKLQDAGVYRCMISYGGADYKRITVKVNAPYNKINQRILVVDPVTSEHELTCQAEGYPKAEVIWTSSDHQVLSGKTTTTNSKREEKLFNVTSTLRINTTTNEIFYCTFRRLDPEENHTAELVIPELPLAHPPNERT

B1: hz140-Hm13/hz182-Lm1 (antibody, V domains shown)
VH: EVQLVQSGAEVKKPGASVKVSCKASGYKFTNYVMSWVRQAPGQRLEWMGYINPYNDAIKYNEKFTGRVTITRDTSASTAYMELSSLRSEDTAVYYCAREGDFYANYGRLGFAYWGQGTLVTVSS
VL: DIQMTQSPSSLSASVGDRVTITCRASQDISNYLNWYQQKPGKAPKLLIYYTSRLHSGVPSRFSGSGSGTDYTLTISSLQPEDFATYFCQQGAGRPYTFGGGTKVEIKR
notes: also called hz182-Lml
The term Kd denotes the equilibrium constant for the complex coming apart. The term kon denotes the rate constant with which the complex forms. Consider B1, for which, in experiment [1], the Kd was 7.06 nM. In addition, in experiment [1], the kon worked out at 134000 M⁻¹ s⁻¹. In addition, the “FACS (MFI)” value in experiment [2] was 15500 MFI; in experiment [3], 2320 MFI.

B2: hz140-Hm13/hz182-Lm9 (antibody, V domains shown)
VH: EVQLVQSGAEVKKPGASVKVSCKASGYKFTNYVMSWVRQAPGQRLEWMGYINPYNDAIKYNEKFTGRVTITRDTSASTAYMELSSLRSEDTAVYYCAREGDFYANYGRLGFAYWGQGTLVTVSS
VL: DIQMTQSPSSLSASVGDRVTITCRASQDISNYLNWYQQKPGKAPKLLLYYTSRLHSGVPSRFSGSGSGTDYTLTISSLQPEDFATYFCQQGDTFPYTFGGGTKVEIKR
In the case of B2, in experiment [1], the Kd came out at 38.9 nM and the kon came out at 132000 M⁻¹ s⁻¹. Also, the “FACS (MFI)” value in experiment [2] was found to be 16400 MFI. For the same molecule, the “FACS (MFI)” value in experiment [3] came to 1750 MFI.

B3: hz140-Hm13/hz182-L (antibody, V domains shown)
VH: EVQLVQSGAEVKKPGASVKVSCKASGYKFTNYVMSWVRQAPGQRLEWMGYINPYNDAIKYNEKFTGRVTITRDTSASTAYMELSSLRSEDTAVYYCAREGDFYANYGRLGFAYWGQGTLVTVSS
VL: DIQMTQSPSSLSASVGDRVTITCRASQDISNYLNWYQQKPGKAPKLLLYYTSRLHSGVPSRFSGSGSGTDYTLTISSLQPEDFATYFCQQGAGRPYTFGGGTKVEIK
As a reminder, the koff is the rate constant with which the complex falls apart. Take B3: in experiment [1], the Kd is 5.97 nM and the kon stood at 125000 M⁻¹ s⁻¹. Besides, the “FACS (MFI)” value in experiment [2] came to 25800 MFI. For the same molecule, the “FACS (MFI)” value in experiment [3] was determined as 2060 MFI. In experiment [4], the Kd was 6.2 nM, the koff is 0.00163 s⁻¹ and the kon turned out to be 263000 M⁻¹ s⁻¹.

B4: hz140-Hm13/hz182-Lm11 (antibody, V domains shown)
VH: EVQLVQSGAEVKKPGASVKVSCKASGYKFTNYVMSWVRQAPGQRLEWMGYINPYNDAIKYNEKFTGRVTITRDTSASTAYMELSSLRSEDTAVYYCAREGDFYANYGRLGFAYWGQGTLVTVSS
VL: DIQMTQSPSSLSASVGDRVTITCRASQDISNYLNWYQQKPGKAPKLLLYYTSRLHSGVPSRFSGSGSGTDYTLTISSLQPEDIATYFCQQGDTFPYTFGGGTKVEIKR
Consider B4, for which the Kd in experiment [1] turned out to be 53.1 nM. In experiment [1], the kon is 103000 M⁻¹ s⁻¹. For the same molecule, the entries for the “FACS (MFI)” value in experiment [2] and in experiment [3] were 20100 MFI and 321 MFI, respectively.

B5: hz140-Hm13/hz182-Lm10 (antibody, V domains shown)
VH: EVQLVQSGAEVKKPGASVKVSCKASGYKFTNYVMSWVRQAPGQRLEWMGYINPYNDAIKYNEKFTGRVTITRDTSASTAYMELSSLRSEDTAVYYCAREGDFYANYGRLGFAYWGQGTLVTVSS
VL: DIQMTQSPSSLSASVGDRVTITCRASQDISNYLNWYQQKPGKAPKLLLYYTSRLHSGVPSRFSGSGSGTDYTLTISSLQPEDIATYFCQQGAGFPYTFGGGTKVEIKR
Turning to B5, in experiment [1], the Kd is 5.14 nM and the kon amounted to 176000 M⁻¹ s⁻¹. Besides, in experiment [2], the “FACS (MFI)” value was 19000 MFI. Further, in experiment [3], the “FACS (MFI)” value was 326 MFI.

B6: hz140-Hm13/hz182-Lm8 (antibody, V domains shown)
VH: EVQLVQSGAEVKKPGASVKVSCKASGYKFTNYVMSWVRQAPGQRLEWMGYINPYNDAIKYNEKFTGRVTITRDTSASTAYMELSSLRSEDTAVYYCAREGDFYANYGRLGFAYWGQGTLVTVSS
VL: DIQMTQSPSSLSASVGDRVTITCRASQDISNYLNWYQQKPGKAPKLLLYYTSRLHSGVPSRFSGSGSGTDYTLTISSLQPEDFATYFCQQGAGRPRTFGGGTKVEIKR
notes: also called h182Lmut8
Turning to B6, in experiment [1], the equilibrium dissociation constant (Kd) is 12.9 nM and the kon came out at 234000 M⁻¹ s⁻¹. Also, the “FACS (MFI)” value in experiment [2] was found to be 39100 MFI. Further, the “FACS (MFI)” value in experiment [3] was found to be 40800 MFI.

B7: hz140-Hm13/hz182-Lm5 (antibody, V domains shown)
VH: EVQLVQSGAEVKKPGASVKVSCKASGYKFTNYVMSWVRQAPGQRLEWMGYINPYNDAIKYNEKFTGRVTITRDTSASTAYMELSSLRSEDTAVYYCAREGDFYANYGRLGFAYWGQGTLVTVSS
VL: DIQMTQSPSSLSASVGDRVTITCRASQDISNYLNWYQQKPGKAPKLLLYYTSRLHSGVPSRFSGSGSGTDYTLTISSLQPEDFATYFCQQGDGRPYTFGGGTKVEIKR
B7: in experiment [1], the Kd was 667 nM and the kon amounted to 79900 M⁻¹ s⁻¹. Also, the “FACS (MFI)” value in experiment [2] came to 39900 MFI. The “FACS (MFI)” value in experiment [3] amounted to 3310 MFI.

B8: hz140-Hm13/hz182-Lm4 (antibody, V domains shown)
VH: EVQLVQSGAEVKKPGASVKVSCKASGYKFTNYVMSWVRQAPGQRLEWMGYINPYNDAIKYNEKFTGRVTITRDTSASTAYMELSSLRSEDTAVYYCAREGDFYANYGRLGFAYWGQGTLVTVSS
VL: DIQMTQSPSSLSASVGDRVTITCRASQDITNYLNWYQQKPGKAPKLLLYYTSRLHSGVPSRFSGSGSGTDYTLTISSLQPEDFATYFCQQGAGRPYTFGGGTKVEIKR
As to B8, the Kd in experiment [1] was 989 nM. Further, the kon in experiment [1] came out at 87900 M⁻¹ s⁻¹. Besides, the figures for the “FACS (MFI)” value in experiment [2] and in experiment [3] were 28500 MFI and 1840 MFI, respectively.

B9: hz140-Hm13/hz182-Lm3 (antibody, V domains shown)
VH: EVQLVQSGAEVKKPGASVKVSCKASGYKFTNYVMSWVRQAPGQRLEWMGYINPYNDAIKYNEKFTGRVTITRDTSASTAYMELSSLRSEDTAVYYCAREGDFYANYGRLGFAYWGQGTLVTVSS
VL: DIQMTQSPSSLSASVGDRVTITCRASQDISNYLNWYQQKPGKAPKLLLYYTSRLHSGVPSRFSGSGSGTDYTLTISSLQPEDIATYFCQQGAGRPYTFGGGTKVEIKR
B9: in experiment [1], the Kd was found to be 16.7 nM and the kon turned out to be 145000 M⁻¹ s⁻¹. Besides, the “FACS (MFI)” value in experiment [2] worked out at 30000 MFI. Moreover, the “FACS (MFI)” value in experiment [3] was 874 MFI.

B10: hz140-Hm13/hz182-Lm2 (antibody, V domains shown)
VH: EVQLVQSGAEVKKPGASVKVSCKASGYKFTNYVMSWVRQAPGQRLEWMGYINPYNDAIKYNEKFTGRVTITRDTSASTAYMELSSLRSEDTAVYYCAREGDFYANYGRLGFAYWGQGTLVTVSS
VL: DIQMTQSPSSLSASVGDRVTITCRASQDISNYLNWYQQKPGKAPKLLLYYTSRLHSGVPSRFSGSGSGTDYTFTISSLQPEDFATYFCQQGAGRPYTFGGGTKVEIKR
As for B10, the Kd in experiment [1] was determined as 1410 nM. Also, the kon in experiment [1] is 94700 M⁻¹ s⁻¹. For the same molecule, the figures for the “FACS (MFI)” value in experiment [2] and in experiment [3] were 30400 MFI and 1670 MFI, respectively.

B11: hz140-Hm13/hz182-Lm6 (antibody, V domains shown)
VH: EVQLVQSGAEVKKPGASVKVSCKASGYKFTNYVMSWVRQAPGQRLEWMGYINPYNDAIKYNEKFTGRVTITRDTSASTAYMELSSLRSEDTAVYYCAREGDFYANYGRLGFAYWGQGTLVTVSS
VL: DIQMTQSPSSLSASVGDRVTITCRASQDISNYLNWYQQKPGKAPKLLLYYTSRLHSGVPSRFSGSGSGTDYTLTISSLQPEDFATYFCQQGATRPYTFGGGTKVEIKR
With B11, the Kd in experiment [1] was found to be 12.5 nM. For the same molecule, the kon in experiment [1] was found to be 114000 M⁻¹ s⁻¹. For the same molecule, the “FACS (MFI)” value came to 15900 MFI in experiment [2] and 695 MFI in experiment [3].

B12: anti-human CD47/PD-L1 bispecific antibody 2MW1531-p (bispecific antibody)
heavy 1: EVQLVQSGAEVKKPGASVKVSCKASGYKFTNYVMSWVRQAPGQRLEWMGYINPYNDAIKYNEKFTGRVTITRDTSASTAYMELSSLRSEDTAVYYCAREGDFYANYGRLGFAYWGQGTLVTVSSASTKGPSVFPLAPCSRSTSESTAALGCLVKDYFPEPVTVSWNSGALTSGVHTFPAVLQSSGLYSLSSVVTVPSSSLGTQTYTCNVDHKPSNTKVDKRVESKYGPPCPPCPAPEFLGGPSVFLFPPKPKDTLMISRTPEVTCVVVDVSQEDPEVQFNWYVDGVEVHNAKTKPREEQYNSTYRVVSVLTVLHQDWLNGKEYKCKVSNKGLPSSIEKTISKAKGQPREPQVYTLPPSQKEMTKNQVSLTCLVKGFYPSDIAVEWESNGQPENNYKTTPPVLDSDGSFFLYSKLTVDKSRWQEGNVFSCSVMHEALHNRYTQKSLSLSLGK
heavy 2: EVQLVQSGAEVKKPGATVKISCKVSGFNIKDIYMHWVQQAPGKGLEWMGRIDPANANTKYDPKFQDRVTITADTSTNTAYMELSSLRSEDTAVYYCASGQLGPLGFDYWGQGTTVTVSSASTKGPSVFPLAPCSRSTSESTAALGCLVKDYFPEPVTVSWNSGALTSGVHTFPAVLQSSGLYSLSSVVTVPSSSLGTQTYTCNVDHKPSNTKVDKRVESKYGPPCPPCPAPEFLGGPSVFLFPPKPKDTLMISRTPEVTCVVVDVSQEDPEVQFNWYVDGVEVHNAKTKPREEQYNSTYRVVSVLTVLHQDWLNGKEYKCKVSNKGLPSSIEKTISKAKGQPREPQVYTLPPSQEEMTKNQVSLTCLVKGFYPSDIAVEWESNGQPENNYKTTPPVLDSDGSFFLYSKLTVDKSRWQEGNVFSCSVMHEALHNHYTQESLSLSLGK
VL: DIQMTQSPSSLSASVGDRVTITCRASQDISNYLNWYQQKPGKAPKLLLYYTSRLHSGVPSRFSGSGSGTDYTLTISSLQPEDFATYFCQQGAGRPYTFGGGTKVEIK
notes: Knobs-into-holes: heavy chain A hz140-H-A (anti-CD47), heavy chain B hz182-H-B (anti-PD-L1), common light chain
Regarding B12, in experiment [5], the Kd stood at 0.474 nM, the koff was determined as 0.000147 s⁻¹ and the kon came to 310000 M⁻¹ s⁻¹. Further, in experiment [6], the Kd came to 8.56 nM, the koff amounted to 0.00131 s⁻¹ and the kon came to 153000 M⁻¹ s⁻¹. Moreover, the “Binding to tumor cells (MFI)” value in experiment [7] was found to be 35400 MFI.
